# Test results taken from patent publication US20230250154A1 (CYTONICS, published 2023).
# T1: ADAMTS4 (human, UniProt O75173 213-685, limits assumed)
# T1 sequence (looked up): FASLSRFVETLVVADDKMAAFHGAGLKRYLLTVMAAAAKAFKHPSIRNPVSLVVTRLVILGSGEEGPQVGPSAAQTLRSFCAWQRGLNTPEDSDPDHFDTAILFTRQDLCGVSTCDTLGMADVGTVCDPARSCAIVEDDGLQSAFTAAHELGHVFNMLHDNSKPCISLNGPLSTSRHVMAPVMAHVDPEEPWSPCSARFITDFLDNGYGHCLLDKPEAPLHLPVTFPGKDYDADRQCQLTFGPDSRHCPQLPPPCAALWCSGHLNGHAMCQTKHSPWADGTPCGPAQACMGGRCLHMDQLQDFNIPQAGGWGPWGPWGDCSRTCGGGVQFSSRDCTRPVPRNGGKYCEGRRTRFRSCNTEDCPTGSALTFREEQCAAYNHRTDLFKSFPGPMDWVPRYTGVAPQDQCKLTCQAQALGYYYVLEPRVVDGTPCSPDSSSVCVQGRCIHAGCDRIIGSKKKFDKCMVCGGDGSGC
# T2: ADAMTS5 (human, UniProt Q9UNA0 262-622, limits assumed)
# T2 sequence (looked up): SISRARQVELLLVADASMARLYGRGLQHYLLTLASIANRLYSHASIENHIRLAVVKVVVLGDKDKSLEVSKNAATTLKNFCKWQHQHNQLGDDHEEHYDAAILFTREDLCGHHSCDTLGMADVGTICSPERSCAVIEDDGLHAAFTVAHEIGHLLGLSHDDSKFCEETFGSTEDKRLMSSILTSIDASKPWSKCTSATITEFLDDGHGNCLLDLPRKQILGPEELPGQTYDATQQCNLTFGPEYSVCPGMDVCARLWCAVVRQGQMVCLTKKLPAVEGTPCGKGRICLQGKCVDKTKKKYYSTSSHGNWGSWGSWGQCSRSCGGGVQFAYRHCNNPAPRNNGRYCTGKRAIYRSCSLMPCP
# B1: Variant A2M, bait region SEQ ID NO 119 (other)
# chain: SVSGKPQYMVLVPSLLHTETTEKGCVLLSYLNETVTVSASLESVRGNRSLFTDLEAENDVLHCVAFAVPKSSSNEEVMFLTVQVKGPTQEFKKRTTVMVKNEDSLVFVQTDKSIYKPGQTVKFRVVSMDENFHPLNELIPLVYIQDPKGNRIAQWQSFQLEGGLKQFSFPLSSEPFQGSYKVVVQKKSGGRTEHPFTVEEFVLPKFEVQVTVPKIITILEEEMNVSVCGLYTYGKPVPGHVTVSICRKYSDASDCHGEDSQAFCEKFSGQLNSHGCFYQQVKTKVFQLKRKEYEMKLHTEAQIQEEGTVVELTGRQSSEITRTITKLSFVKVDSHFRQGIPFFGQVRLVDGKGVPIPNKVIFIRGNEANYYSNATTDEHGLVQFSINTTNVMGTSLTVRVNYKDRSPCYGYQWVSEEHEEAHHTAYLVFSPSKSFVHLEPMSHELPCGHTQTVQAHYILNGGTLLGLKKLSFYYLIMAKGGIVRTGTHGLLVKQEDMKGHFSISIPVKSDIAPVARLLIYAVLPTGDVIGDSAKYDVENCLANKVDLSFSPSQSLPASHAHLRVTAAPQSVCALRAVDQSVLLMKPDAELSASSVYNLLPEKDLTGFPGPLNDQDDEDCINRHNVYINGITYTPVSSTNEKDMYSFLEDMGLKAFTNSKIRKPKMCPQLELQQYEMHGPEGLRVGEAIPMSIPIPENFFGVKEEEGLGSKLRKYFPETWIWDLVVVNSAGVAEVGVTVPDTITEWKAGAFCLSEDAGLGISSTASLRAFQPFFVELTMPYSVIRGEAFTLKATVLNYLPKCIRVSVQLEASPAFLAVPVEKEQAPHCICANGRQTVSWAVTPKSLGNVNFTVSAEALESQELCGTEVPSVPEHGRKDTVIKPLLVEPEGLEKETTFNSLLCPSGGEVSEELSLKLPPNVVEESARASVSVLGDILGSAMQNTQNLLQMPYGCGEQNMVLFAPNIYVLDYLNETQQLTPEIKSKAIGYLNTGYQRQLNYKHYDGSYSTFGERYGRNQGNTWLTAFVLKTFAQARAYIFIDEAHITQALIWLSQRQKDNGCFRSSGSLLNNAIKGGVEDEVTLSAYITIALLEIPLTVTHPVVRNALFCLESAWKTAQEGDHGSHVYTKALLAYAFALAGNQDKRKEVLKSLNEEAVKKDNSVHWERPQKPKAPVGHFYEPQAPSAEVEMTSYVLLAYLTAQPAPTSEDLTSATNIVKWITKQQNAQGGFSSTQDTVVALHALSKYGAATFTRTGKAAQVTIQSSGTFSSKFQVDNNNRLLLQQVSLPELPGEYSMKVTGEGCVYLQTSLKYNILPEKEEFPFALGVQTLPQTCDEPKAHTSFQISLSVSYTGSRSASNMAIVDVKMVSGFIPLKPTVKMLERSNHVSRTEVSSNHVLIYLDKVSNQTLSLFFTVLQDVPVRDLKPAIVKVYDYYETDEFAIAEYNAPCSKDLGNADYKDDDDKGASHHHHHH
# B2: Variant A2M, bait region SEQ ID NO 116 (other)
# chain: SVSGKPQYMVLVPSLLHTETTEKGCVLLSYLNETVTVSASLESVRGNRSLFTDLEAENDVLHCVAFAVPKSSSNEEVMFLTVQVKGPTQEFKKRTTVMVKNEDSLVFVQTDKSIYKPGQTVKFRVVSMDENFHPLNELIPLVYIQDPKGNRIAQWQSFQLEGGLKQFSFPLSSEPFQGSYKVVVQKKSGGRTEHPFTVEEFVLPKFEVQVTVPKIITILEEEMNVSVCGLYTYGKPVPGHVTVSICRKYSDASDCHGEDSQAFCEKFSGQLNSHGCFYQQVKTKVFQLKRKEYEMKLHTEAQIQEEGTVVELTGRQSSEITRTITKLSFVKVDSHFRQGIPFFGQVRLVDGKGVPIPNKVIFIRGNEANYYSNATTDEHGLVQFSINTTNVMGTSLTVRVNYKDRSPCYGYQWVSEEHEEAHHTAYLVFSPSKSFVHLEPMSHELPCGHTQTVQAHYILNGGTLLGLKKLSFYYLIMAKGGIVRTGTHGLLVKQEDMKGHFSISIPVKSDIAPVARLLIYAVLPTGDVIGDSAKYDVENCLANKVDLSFSPSQSLPASHAHLRVTAAPQSVCALRAVDQSVLLMKPDAELSASSVYNLLPEKDLTGFPGPLNDQDDEDCINRHNVYINGITYTPVSSTNEKDMYSFLEDMGLKAFTNSKIRKPKMCPQLEELEGRGSKEEEGLGSIPENFFGVFYESDVMGRGHARLVHVEEPHTKLRKYFPETWIWDLVVVNSAGVAEVGVTVPDTITEWKAGAFCLSEDAGLGISSTASLRAFQPFFVELTMPYSVIRGEAFTLKATVLNYLPKCIRVSVQLEASPAFLAVPVEKEQAPHCICANGRQTVSWAVTPKSLGNVNFTVSAEALESQELCGTEVPSVPEHGRKDTVIKPLLVEPEGLEKETTFNSLLCPSGGEVSEELSLKLPPNVVEESARASVSVLGDILGSAMQNTQNLLQMPYGCGEQNMVLFAPNIYVLDYLNETQQLTPEIKSKAIGYLNTGYQRQLNYKHYDGSYSTFGERYGRNQGNTWLTAFVLKTFAQARAYIFIDEAHITQALIWLSQRQKDNGCFRSSGSLLNNAIKGGVEDEVTLSAYITIALLEIPLTVTHPVVRNALFCLESAWKTAQEGDHGSHVYTKALLAYAFALAGNQDKRKEVLKSLNEEAVKKDNSVHWERPQKPKAPVGHFYEPQAPSAEVEMTSYVLLAYLTAQPAPTSEDLTSATNIVKWITKQQNAQGGFSSTQDTVVALHALSKYGAATFTRTGKAAQVTIQSSGTFSSKFQVDNNNRLLLQQVSLPELPGEYSMKVTGEGCVYLQTSLKYNILPEKEEFPFALGVQTLPQTCDEPKAHTSFQISLSVSYTGSRSASNMAIVDVKMVSGFIPLKPTVKMLERSNHVSRTEVSSNHVLIYLDKVSNQTLSLFFTVLQDVPVRDLKPAIVKVYDYYETDEFAIAEYNAPCSKDLGNADYKDDDDKGASHHHHHH
# B3: Variant A2M, bait region SEQ ID NO 117 (other)
# chain: SVSGKPQYMVLVPSLLHTETTEKGCVLLSYLNETVTVSASLESVRGNRSLFTDLEAENDVLHCVAFAVPKSSSNEEVMFLTVQVKGPTQEFKKRTTVMVKNEDSLVFVQTDKSIYKPGQTVKFRVVSMDENFHPLNELIPLVYIQDPKGNRIAQWQSFQLEGGLKQFSFPLSSEPFQGSYKVVVQKKSGGRTEHPFTVEEFVLPKFEVQVTVPKIITILEEEMNVSVCGLYTYGKPVPGHVTVSICRKYSDASDCHGEDSQAFCEKFSGQLNSHGCFYQQVKTKVFQLKRKEYEMKLHTEAQIQEEGTVVELTGRQSSEITRTITKLSFVKVDSHFRQGIPFFGQVRLVDGKGVPIPNKVIFIRGNEANYYSNATTDEHGLVQFSINTTNVMGTSLTVRVNYKDRSPCYGYQWVSEEHEEAHHTAYLVFSPSKSFVHLEPMSHELPCGHTQTVQAHYILNGGTLLGLKKLSFYYLIMAKGGIVRTGTHGLLVKQEDMKGHFSISIPVKSDIAPVARLLIYAVLPTGDVIGDSAKYDVENCLANKVDLSFSPSQSLPASHAHLRVTAAPQSVCALRAVDQSVLLMKPDAELSASSVYNLLPEKDLTGFPGPLNDQDDEDCINRHNVYINGITYTPVSSTNEKDMYSFLEDMGLKAFTNSKIRKPKMCPQLEENFFGVTEGEARGSPTSEDLVVQKEEEGLGSEAIPMSIPKLRKYFPETWIWDLVVVNSAGVAEVGVTVPDTITEWKAGAFCLSEDAGLGISSTASLRAFQPFFVELTMPYSVIRGEAFTLKATVLNYLPKCIRVSVQLEASPAFLAVPVEKEQAPHCICANGRQTVSWAVTPKSLGNVNFTVSAEALESQELCGTEVPSVPEHGRKDTVIKPLLVEPEGLEKETTFNSLLCPSGGEVSEELSLKLPPNVVEESARASVSVLGDILGSAMQNTQNLLQMPYGCGEQNMVLFAPNIYVLDYLNETQQLTPEIKSKAIGYLNTGYQRQLNYKHYDGSYSTFGERYGRNQGNTWLTAFVLKTFAQARAYIFIDEAHITQALIWLSQRQKDNGCFRSSGSLLNNAIKGGVEDEVTLSAYITIALLEIPLTVTHPVVRNALFCLESAWKTAQEGDHGSHVYTKALLAYAFALAGNQDKRKEVLKSLNEEAVKKDNSVHWERPQKPKAPVGHFYEPQAPSAEVEMTSYVLLAYLTAQPAPTSEDLTSATNIVKWITKQQNAQGGFSSTQDTVVALHALSKYGAATFTRTGKAAQVTIQSSGTFSSKFQVDNNNRLLLQQVSLPELPGEYSMKVTGEGCVYLQTSLKYNILPEKEEFPFALGVQTLPQTCDEPKAHTSFQISLSVSYTGSRSASNMAIVDVKMVSGFIPLKPTVKMLERSNHVSRTEVSSNHVLIYLDKVSNQTLSLFFTVLQDVPVRDLKPAIVKVYDYYETDEFAIAEYNAPCSKDLGNADYKDDDDKGASHHHHHH
# Target: T1, ADAMTS4
# Experiment: cell-based or functional assay
row,Binder,Protease Inhibition (% of WT)
1,B1,100 % of WT
2,B2,107 % of WT
3,B3,100 % of WT

# Target: T2, ADAMTS5
# Experiment: cell-based or functional assay
row,Binder,Protease Inhibition (% of WT)
1,B1,170 % of WT
2,B2,92 % of WT
3,B3,190 % of WT

# Target: MMP13 (human, UniProt P45452 104-471, limits assumed)
# Experiment: cell-based or functional assay
row,Binder,Protease Inhibition (% of WT)
1,B1,90 % of WT
2,B2,116 % of WT
3,B3,11 % of WT
